Where a chain is given by its changes, count along the chain named.
B1: mAb 188 (antibody, V domains shown)
VH: QVQLVESGGGVVQPGRSLRLSCAASGFTFSGYGMHWVRQAPGKGLEWVAIIYYNGKKEYYADSVKGRFTISRDNSKNTLYLQMNSLRAEDTAVYYCTRGEGYNWFDPWGQGTLVTVSS
VL: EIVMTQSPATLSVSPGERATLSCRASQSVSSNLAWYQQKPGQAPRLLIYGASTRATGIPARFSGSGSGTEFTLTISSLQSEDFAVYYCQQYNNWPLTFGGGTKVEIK
notes: VH/VL only
B2: mAb 217 (antibody, V domains shown)
VH: B1 VH with S71F, L79V, N84K
VL: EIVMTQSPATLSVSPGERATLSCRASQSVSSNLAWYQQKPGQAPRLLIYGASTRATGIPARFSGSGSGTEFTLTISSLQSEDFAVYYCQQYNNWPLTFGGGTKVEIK
notes: VH/VL only
B3: mAb 199 (antibody, V domains shown)
VH: B1 VH with S71F, Q82H
VL: EIVMTQSPATLSVSPGERATLSCRASQSVSRNLAWYQQKPGQAPRLLIYGASTRATGIPARFSGSGSGTEFTLTISSLQSEDFAVYYCQQYNNWPLTFGGGTKVEIK
notes: VH/VL only
B4: mAb 191 (antibody, V domains shown)
VH: B1 VH
VL: B3 VL with R31S, E70D, D82H, N92T
notes: VH/VL only
B5: mAb 222 (antibody, V domains shown)
VH: B1 VH with L79V
VL: B3 VL with E1K, R31S, Q89K
notes: VH/VL only
B6: mAb 221 (antibody, V domains shown)
VH: B1 VH with R16G, Y52W, K56R, E58T, D62E, Y80S, A88V, R98A, E100Q
VL: B3 VL with R31S, Y91F, N93A, V104M
notes: VH/VL only
B7: mAb 216 (antibody, V domains shown)
VH: B1 VH
VL: B3 VL with R31S, Q89K, N92K
notes: VH/VL only
B8: mAb 189 (antibody, V domains shown)
VH: B1 VH with N54D, K57N, E58K, N77S, R87G, E89D, E100K
VL: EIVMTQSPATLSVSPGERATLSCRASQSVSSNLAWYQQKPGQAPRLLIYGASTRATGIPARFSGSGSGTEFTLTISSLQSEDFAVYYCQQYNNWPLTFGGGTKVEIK
notes: VH/VL only
B9: mAb 209 (antibody, V domains shown)
VH: B1 VH with I70V, T78M
VL: B3 VL with S28T, R31S, Q89K, W94R
notes: VH/VL only
B10: mAb 192 (antibody, V domains shown)
VH: B1 VH with T112I
VL: B3 VL with R31S, Q89K, N92K
notes: VH/VL only
B11: mAb 203 (antibody, V domains shown)
VH: B1 VH with R16G, S30R, K56R, E58T, D62E, Y80S, A88V, R98A, E100Q
VL: B3 VL with R31S, Y91F, N93A, V104M
notes: VH/VL only
B12: mAb 198 (antibody, V domains shown)
VH: B1 VH with R16G, Y52W, K56R, E58T, D62E, Y80S, A88I, R98T, E100Q
VL: B3 VL with R31S, Y91F, N93A, V104M
notes: VH/VL only
B13: mAb 201 (antibody, V domains shown)
VH: B1 VH
VL: B3 VL with R31S, N32S
notes: VH/VL only
B14: mAb 197 (antibody, V domains shown)
VH: B1 VH with R16G, Y52W, K56R, E58T, D62E, Y80S, A88V, R98T, E100Q
VL: B3 VL with R31S, Y91F, N93A, V104M
notes: VH/VL only
B15: mAb 224 (antibody, V domains shown)
VH: B1 VH with T78M, S85G, V93I
VL: B3 VL with A19T, R31N
notes: VH/VL only
B16: mAb 205 (antibody, V domains shown)
VH: B1 VH with R16K
VL: B3 VL with R31S, Q89K
notes: VH/VL only
B17: mAb 204 (antibody, V domains shown)
VH: B1 VH with P14S, I51V, N54D, K57N, E58K, T97V
VL: B3 VL with R31S, A43V, E70Q
notes: VH/VL only
B18: mAb 206 (antibody, V domains shown)
VH: QVQLVESGGGVVQPGRSLRLSCAASGFTFSGYGMHWVRQAPGKGLEWVAIIYYNGNNRKYADSVKGRFTISRDNSKNTVSLQMNSLRVEDTAIYYCTRGDGYNWFVTWGQGTLVTVSS
VL: B3 VL with R31S, Q37H, A60V
notes: VH/VL only
B19: mAb 193 (antibody, V domains shown)
VH: B18 VH
VL: B3 VL with R31S, Q37H, A60V, E81D
notes: VH/VL only
B20: mAb 215 (antibody, V domains shown)
VH: B18 VH with S25T
VL: B3 VL with R31S, Q37R, A60V
notes: VH/VL only; the VL is printed as a fragment of 18 residues only
B21: mAb 210 (antibody, V domains shown)
VH: B18 VH with V48L, I93M
VL: B3 VL with T20A, S30T, R31S, Q37H, A60V, I106N
notes: VH/VL only
B22: mAb 218 (antibody, V domains shown)
VH: B18 VH with K65R
VL: B3 VL with R31S, Q37Y, A60V
notes: VH/VL only
B23: mAb 226 (antibody, V domains shown)
VH: B18 VH
VL: B3 VL with V29I, R31S, Q37H, A60V, V85L
notes: VH/VL only

Tests used:
[1] = target: T1, human CD3 expressed on cells (Jurkat cells; human primary T cells) (human, UniProt P07766 23-207; P04234 22-171; P09693 23-182); experiment: flow cytometry, 25 nM, Jurkat cells
T1 construct: whole, on cells
Procedure: (§1) Purified antibodies were confirmed to bind CD3 expressed on cells using the CytoFLEX S or LX flow cytometers (Beckman Coulter). Antibodies were diluted to 25 nM in FACS buffer (PBS+2% FBS) and were incubated with CD3-expressing cells for 30 minutes at 4° C. […] The median fluorescence intensity of the binding signal for each antibody was normalized to the isotype control to obtain a fold over isotype value. An antibody with a fold over isotype (FOI) of ≥10 was considered to be positive for binding.

[2] = target: T2, cynomolgus monkey CD3 expressed on cyno primary T cells (cynomolgus monkey, UniProt Q95LI5 22-198; Q95LI8 22-171; Q95LI7 23-181); experiment: flow cytometry, cyno primary T cells
T2 construct: whole, on cells; CD3 complex on purified cynomolgus monkey CD3 pan T cells; also called cyno CD3
Method in brief: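 Binding reported as fold over isotype: median fluorescence intensity divided by isotype control, with ≥10 scored positive. Cells were exposed to 25 nM antibody in PBS/2% FBS, 30 min, 4 °C, before flow cytometric read-out.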

[3] = target: T1, human CD3 expressed on cells (Jurkat …); experiment: flow cytometry, 25 nM, human primary T cells
Procedure: as §1

T1 sequence (P07766 23-207, chain 1 of 3): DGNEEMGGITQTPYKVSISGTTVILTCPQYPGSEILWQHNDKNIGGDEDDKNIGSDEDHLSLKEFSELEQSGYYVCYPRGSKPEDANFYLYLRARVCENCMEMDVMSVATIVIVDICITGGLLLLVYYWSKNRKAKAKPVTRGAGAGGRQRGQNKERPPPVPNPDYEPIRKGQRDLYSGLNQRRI
T1 sequence (P04234 22-171, chain 2 of 3): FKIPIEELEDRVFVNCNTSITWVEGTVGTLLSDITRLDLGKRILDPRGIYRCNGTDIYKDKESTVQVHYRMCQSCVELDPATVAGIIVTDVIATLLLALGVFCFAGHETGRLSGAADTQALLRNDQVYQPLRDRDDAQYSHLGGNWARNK
T1 sequence (P09693 23-182, chain 3 of 3): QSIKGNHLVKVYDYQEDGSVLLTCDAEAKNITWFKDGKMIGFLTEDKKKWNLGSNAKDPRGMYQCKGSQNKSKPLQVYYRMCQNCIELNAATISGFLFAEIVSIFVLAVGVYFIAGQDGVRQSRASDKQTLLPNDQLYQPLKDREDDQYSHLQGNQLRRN
T2 sequence (Q95LI5 22-198, chain 1 of 3): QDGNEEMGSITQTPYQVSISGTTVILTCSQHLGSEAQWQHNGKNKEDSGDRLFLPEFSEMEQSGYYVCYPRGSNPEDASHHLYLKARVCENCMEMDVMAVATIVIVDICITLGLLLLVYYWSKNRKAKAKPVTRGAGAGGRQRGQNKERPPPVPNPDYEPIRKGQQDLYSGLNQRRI
T2 sequence (Q95LI8 22-171, chain 2 of 3): as the sequence (P04234 22-171, chain 2 of 3) above, with I5V, N15K, I20V, S32T, D33N, I34N, T64A, S74N, V83L, H141R counted along it
T2 sequence (Q95LI7 23-181, chain 3 of 3): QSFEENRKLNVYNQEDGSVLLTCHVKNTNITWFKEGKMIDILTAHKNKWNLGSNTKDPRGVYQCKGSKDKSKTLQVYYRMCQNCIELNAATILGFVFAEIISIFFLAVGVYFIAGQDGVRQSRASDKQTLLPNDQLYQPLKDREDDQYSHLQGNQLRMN

Binder | Binding (FOI) [1] [FOI] | binding result [2] | Binding (FOI) [3] [FOI]
B1 | 171 | no binding (tested: FOI <10 (FOI >=10 = positive); 25 nM) | 216
B2 | 173 | no binding (tested: FOI <10 (FOI >=10 = positive); 25 nM) | 214
B3 | 172 | no binding (tested: FOI <10 (FOI >=10 = positive); 25 nM) | 225
B4 | 170 | no binding (tested: FOI <10 (FOI >=10 = positive); 25 nM) | 212
B5 | 180 | no binding (tested: FOI <10 (FOI >=10 = positive); 25 nM) | 216
B6 | 181 | no binding (tested: FOI <10 (FOI >=10 = positive); 25 nM) | 239
B7 | 182 | no binding (tested: FOI <10 (FOI >=10 = positive); 25 nM) | 218
B8 | 165 | no binding (tested: FOI <10 (FOI >=10 = positive); 25 nM) | 184
B9 | 186 | no binding (tested: FOI <10 (FOI >=10 = positive); 25 nM) | 228
B10 | 176 | no binding (tested: FOI <10 (FOI >=10 = positive); 25 nM) | 223
B11 | 201 | no binding (tested: FOI <10 (FOI >=10 = positive); 25 nM) | 285
B12 | 182 | no binding (tested: FOI <10 (FOI >=10 = positive); 25 nM) | 231
B13 | 166 | no binding (tested: FOI <10 (FOI >=10 = positive); 25 nM) | 210
B14 | 183 | no binding (tested: FOI <10 (FOI >=10 = positive); 25 nM) | 260
B15 | 181 | no binding (tested: FOI <10 (FOI >=10 = positive); 25 nM) | 212
B16 | 180 | no binding (tested: FOI <10 (FOI >=10 = positive); 25 nM) | 216
B17 | 162 | no binding (tested: FOI <10 (FOI >=10 = positive); 25 nM) | 181
B18 | 186 | no binding (tested: FOI <10 (FOI >=10 = positive); 25 nM) | 198
B19 | 163 | no binding (tested: FOI <10 (FOI >=10 = positive); 25 nM) | 206
B20 | 167 | no binding (tested: FOI <10 (FOI >=10 = positive); 25 nM) | 202
B21 | 168 | no binding (tested: FOI <10 (FOI >=10 = positive); 25 nM) | 192
B22 | 179 | no binding (tested: FOI <10 (FOI >=10 = positive); 25 nM) | 192
B23 | 176 | no binding (tested: FOI <10 (FOI >=10 = positive); 25 nM) | 199

Reference: US20230295310A1 (ABCELLERA BIOLOGICS, published 2023)
